Test results published in publication PMC2774616, “Cellular Assays for High-Throughput Screening for Modulators of Trk Receptor Tyrosine Kinases” (Current Chemical Genomics, 2008).

B1: NGF: nerve growth factor, neurotrophin, preferred ligand of TrkA (protein, UniProt P01139 122-241, looked up)
Beta-nerve growth factor: SSTHPVFHMGEFSVCDSVSVWVGDKTTATDIKGKEVTVLAEVNINNSVFRQYFFETKCRASNPVESGCRGIDSKHWNSYCTTTHTFVKALTTDEKQAAWRFIRIDTACVCVLSRKATRRG
B2: BDNF: brain-derived neurotrophic factor, neurotrophin, ligand of TrkB (protein, UniProt P23560 19-247, looked up)
Neurotrophic factor BDNF …: APMKEANIRGQGGLAYPGVRTHGTLESVNGPKAGSRGLTSLADTFEHVIEELLDEDQKVRPNEENNKDADLYTSRVMLSSQVPLEPPLLFLLEEYKNYLDAANMSMRVRRHSDPARRGELSVCDSISEWVTAADKKTAVDMSGGTVTVLEKVPVSKGQLKQYFYETKCNPMGYTKEGCRGIDKRHWNSQCRTTQSYVRALTMDSKKRIGWRFIRIDTSCVCTLTIKRGR
B3: NT-4: neurotrophin 4, ligand of TrkB (protein, UniProt P34130 81-210, looked up)
Neurotrophin-4: GVSETAPASRRGELAVCDAVSGWVTDRRTAVDLRGREVEVLGEVPAAGGSPLRQYFFETRCKADNAEEGGPGAGGGGCRGVDRRHWVSECKAKQSYVRALTADAQGRVGWRWIRIDTACVCTLLSRTGRA

Tests used:
Format in all cases: cell-based
[1] = test system: Thapsigargin-induced NFAT reporter activity, TrkA-NFAT-bla CHO-K1 cells; test: Inhibition of Thapsigargin-induced NFAT reporter activity in TrkA-NFAT-bla CHO-K1 cells; conditions: TrkA cells, Thapsigargin 8 nM, 5 h; * values may not be accurate, curves did not reach saturation; read-out: IC50, TrkA, Thaps
Experimental: (§1) Cells in a sub-confluency state (or cryopreserved cells) were resuspended in Assay Medium (DMEM with GlutaMAX™ (Invitrogen, catalog number 10569) supplemented with 0.1% dialyzed FBS, 0.1 mM NEAA, 25 mM HEPES, 100 U/mL Penicillin and 100 µg/mL Streptomycin) and plated in a 384-well assay plate (Corning, Lowell, MA, catalog number 3712) at 10,000 cells (32 μL) per well. 32 μL of Assay Medium without cells were plated in Cell-free Control wells on the same plate. 4 µL 1% DMSO was added to each well to reach final DMSO concentration of 0.1% to mimic the screening situation where compounds dissolved in DMSO are added to test wells. Cells were then stimulated with 4 µL/well 10 x ligands (NGF, BDNF, NT-4 (Invitrogen, catalog number PHC7024), NT-3 or Thapsigargin (Sigma, St. Louis, MO)) over the indicated concentration range (1 pM ~ 50000 pM) for 5 hours before adding 8 µL/well 6X LiveBLAzer™-FRET B/G Substrate mixture (Invitrogen, catalog number K1096) for 2 hours. Fluorescence intensity at excitation 406 nm and emission 460 nm and 530 nm were obtained using Tecan Safire^2 fluorescence plate reader (Tecan, Durham, NC) (Table 1). After subtracting the average fluorescence intensity from the Cell-free Control wells, the 460nm/530nm emission ratio was calculated. Response Ratio is a measurement of the assay window and is calculated as the 460nm/530nm Emission Ratio of the stimulated wells divided by the 460nm/530nm Emission Ratio of the unstimulated wells. Response Ratios were plotted against test ligand concentrations in log scale and then analyzed using Prism software (GraphPad Software, Inc. San Diego, CA). Sigmoidal dose-response equation with varying slope was used to fit the data and generate EC50 values. Z’-factor values were calculated as: Z’-factor = 1 - [(3 x stdevunstim + 3 x stdevmaxstim) / (avgmaxstim – avgunstim)].
(§2) Cells were then stimulated with 4 µL of neurotrophins at 10 x EC80 concentrations (EC80 concentrations are: NGF, 0.77 nM; BDNF, 1 nM; NT-3, 0.72 nM; Thapsigargin, 8 nM) for 5 hours before beta-lactamase assay was performed as described above.

[2] = test system: Thapsigargin-induced NFAT reporter activity, TrkC-NFAT-bla CHO-K1 cells; test: Inhibition of Thapsigargin-induced NFAT reporter activity in TrkC-NFAT-bla CHO-K1 cells; conditions: TrkC cells, Thapsigargin 8 nM, 5 h; * values may not be accurate, curves did not reach saturation; read-out: IC50, TrkC, Thaps
Experimental: as §1, §2

[3] = test system: Thapsigargin-induced NFAT reporter activity, TrkB-NFAT-bla CHO-K1 cells; test: Inhibition of Thapsigargin-induced NFAT reporter activity in TrkB-NFAT-bla CHO-K1 cells; conditions: TrkB cells, Thapsigargin 8 nM, 5 h; * values may not be accurate, curves did not reach saturation; read-out: IC50, TrkB, Thaps
Experimental: as §1, §2

[4] = test system: thapsigargin-induced NFAT-bla reporter activity; test: Effect of RNAi oligos on thapsigargin-induced NFAT-bla reporter activity in TrkA-, TrkB- and TrkC-NFAT-bla CHO-K1 cells; conditions: all three cell lines, 50 nM RNAi oligo, Thapsigargin 30 nM 5 h
Experimental: Cells were plated in 96-well assay plates (Corning, catalog number 3603) at 6,000 cells/well in 100 µL growth medium (DMEM containing 10% dialyzed FBS, 0.1 mM NEAA and 25 mM HEPES), and incubated in 37°C, 5% CO2 incubator overnight. Next morning, Stealth™ RNAi (Invitrogen, catalog number 10620318) and Lipofectamine^TM RNAiMAX (Invitrogen, catalog number 13778) complexes were prepared according to the manufacturer’s protocol and added to the wells (50 nM RNAi oligos and 1µL RNAiMAX/well). RNAi oligo targeting for beta-lactamase was used as the positive control and a random-sequenced oligo with 48% GC content (Med GC) as the negative control. A set of 2 oligos for each Trk was used:
Cells were incubated with RNAi oligos at 37°C for 32 hours, followed by a medium change. Cells were incubated in Assay Medium at 37 °C for 16 hours and then stimulated with respective ligands (NGF, 0.77 nM; BDNF, 1 nM; NT-3, 0.72 nM and Thapsigargin, 30 nM) for 5 hours before beta-lactamase assay was performed as described above.

human TrkC = target: T1, human TrkC (Homo sapiens, UniProt Q16288); test: Neurotrophin dose response, beta-lactamase reporter assay in TrkC-NFAT-bla CHO-K1 cells; conditions: for EC50: 5 h stimulation, 0.1% DMSO, * values may not be accurate, curves did not reach saturation; for response of TrkC-NFAT-bla CHO-K1 cells (in words): up to 50 nM
T1 construct: Full length human TRKA, TRKB and TRKC cDNAs were synthesized by Blue Heron Biotechnology; expressed in transfected cells
Source text: (§3) NFAT beta-lactamase reporter line NFAT-bla CHO-K1 cells (Invitrogen, Carlsbad, CA, catalog number K1078) were transfected using Lipofectamine™ LTX transfection reagent (Invitrogen, Carlsbad, CA) with pcDNA6-TRKA, pcDNA6-TRKB and pcDNA6-TRKC and selected for blasticidin-resistance. Blasticidin-resistant TrkA transfected cells were stimulated with NGF (Invitrogen, catalog number 13257-019), TrkB transfected cells with BDNF (Invitrogen, catalog number PHC7074) and TrkC transfected cells with NT-3 (Invitrogen, catalog number PHC7034) for 5 hours before neurotrophin stimulated beta-lactamase expressing cells were collected by FACS as single cells onto 96-well plates. The survived clones that responded to the respective ligand were selected and expanded. The clone with the best response to each ligand was further tested in a 384-well format for the dose response of neurotrophins and inhibitors and in a 96-well format for RNAi knock-down.
as §1

human TrkB = target: T2, human TrkB (Homo sapiens, UniProt Q16620); test: Neurotrophin dose response, beta-lactamase reporter assay in TrkB-NFAT-bla CHO-K1 cells; conditions: for EC50: 5 h stimulation, 0.1% DMSO; for maximum response ratio, TrkB-NFAT-bla CHO-K1: 460nm/530nm ratio stimulated vs unstimulated
T2 construct: Full length human TRKA, TRKB and TRKC cDNAs were synthesized by Blue Heron Biotechnology; expressed in transfected cells
Source text: as §3, §1

human TrkA = target: T3, human TrkA (Homo sapiens, UniProt P04629); test: Neurotrophin dose response, beta-lactamase reporter assay in TrkA-NFAT-bla CHO-K1 cells; conditions: for EC50: 5 h stimulation, 0.1% DMSO, * values may not be accurate, curves did not reach saturation; for response of TrkA-NFAT-bla CHO-K1 cells (in words): up to 50 nM
T3 construct: Full length human TRKA, TRKB and TRKC cDNAs were synthesized by Blue Heron Biotechnology; expressed in transfected cells
Source text: as §3, §1

[5] = used for stimulation in inhibitor assay

T1 sequence (Q16288 32-825 isoform Q16288-3 limits assumed): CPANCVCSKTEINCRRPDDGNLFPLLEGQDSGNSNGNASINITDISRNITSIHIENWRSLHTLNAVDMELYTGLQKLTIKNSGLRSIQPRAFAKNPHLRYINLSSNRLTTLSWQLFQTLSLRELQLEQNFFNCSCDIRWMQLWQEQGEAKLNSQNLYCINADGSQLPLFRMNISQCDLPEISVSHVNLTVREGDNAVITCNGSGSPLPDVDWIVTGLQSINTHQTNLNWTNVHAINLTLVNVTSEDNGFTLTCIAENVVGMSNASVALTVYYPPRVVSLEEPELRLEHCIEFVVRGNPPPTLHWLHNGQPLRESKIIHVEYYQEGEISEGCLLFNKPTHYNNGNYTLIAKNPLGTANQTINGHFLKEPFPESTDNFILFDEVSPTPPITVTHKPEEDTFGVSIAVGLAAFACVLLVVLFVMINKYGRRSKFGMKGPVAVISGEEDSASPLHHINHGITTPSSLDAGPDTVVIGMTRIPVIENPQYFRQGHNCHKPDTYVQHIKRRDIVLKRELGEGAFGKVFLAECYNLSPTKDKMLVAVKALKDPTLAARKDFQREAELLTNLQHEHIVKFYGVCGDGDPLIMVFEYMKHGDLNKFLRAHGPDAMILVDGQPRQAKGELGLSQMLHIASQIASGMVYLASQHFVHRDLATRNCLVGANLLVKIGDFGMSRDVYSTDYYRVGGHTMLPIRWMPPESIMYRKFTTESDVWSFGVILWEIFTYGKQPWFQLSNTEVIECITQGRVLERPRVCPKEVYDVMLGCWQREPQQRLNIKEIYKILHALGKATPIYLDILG
T3 sequence (P04629 33-796): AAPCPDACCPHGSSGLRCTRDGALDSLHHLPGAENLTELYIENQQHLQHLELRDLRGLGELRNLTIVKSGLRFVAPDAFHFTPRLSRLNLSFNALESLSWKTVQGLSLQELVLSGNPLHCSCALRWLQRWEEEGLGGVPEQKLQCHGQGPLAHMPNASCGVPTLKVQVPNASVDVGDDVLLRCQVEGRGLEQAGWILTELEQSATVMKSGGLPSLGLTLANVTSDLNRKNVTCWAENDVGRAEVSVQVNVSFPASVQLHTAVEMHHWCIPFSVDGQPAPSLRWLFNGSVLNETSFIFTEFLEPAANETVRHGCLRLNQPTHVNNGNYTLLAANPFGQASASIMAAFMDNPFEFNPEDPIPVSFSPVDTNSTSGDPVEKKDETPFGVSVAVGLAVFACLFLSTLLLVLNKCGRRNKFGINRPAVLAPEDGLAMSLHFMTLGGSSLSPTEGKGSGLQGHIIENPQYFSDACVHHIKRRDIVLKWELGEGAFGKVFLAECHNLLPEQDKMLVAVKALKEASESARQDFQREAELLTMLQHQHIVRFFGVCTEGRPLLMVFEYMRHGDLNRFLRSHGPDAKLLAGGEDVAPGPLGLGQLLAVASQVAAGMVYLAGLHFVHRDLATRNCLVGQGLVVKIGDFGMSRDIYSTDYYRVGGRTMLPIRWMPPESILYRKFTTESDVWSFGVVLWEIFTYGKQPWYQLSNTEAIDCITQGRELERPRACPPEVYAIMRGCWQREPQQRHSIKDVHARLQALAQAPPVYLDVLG
T2 sequence (Q16620 32-838 isoform Q16620-4 limits assumed): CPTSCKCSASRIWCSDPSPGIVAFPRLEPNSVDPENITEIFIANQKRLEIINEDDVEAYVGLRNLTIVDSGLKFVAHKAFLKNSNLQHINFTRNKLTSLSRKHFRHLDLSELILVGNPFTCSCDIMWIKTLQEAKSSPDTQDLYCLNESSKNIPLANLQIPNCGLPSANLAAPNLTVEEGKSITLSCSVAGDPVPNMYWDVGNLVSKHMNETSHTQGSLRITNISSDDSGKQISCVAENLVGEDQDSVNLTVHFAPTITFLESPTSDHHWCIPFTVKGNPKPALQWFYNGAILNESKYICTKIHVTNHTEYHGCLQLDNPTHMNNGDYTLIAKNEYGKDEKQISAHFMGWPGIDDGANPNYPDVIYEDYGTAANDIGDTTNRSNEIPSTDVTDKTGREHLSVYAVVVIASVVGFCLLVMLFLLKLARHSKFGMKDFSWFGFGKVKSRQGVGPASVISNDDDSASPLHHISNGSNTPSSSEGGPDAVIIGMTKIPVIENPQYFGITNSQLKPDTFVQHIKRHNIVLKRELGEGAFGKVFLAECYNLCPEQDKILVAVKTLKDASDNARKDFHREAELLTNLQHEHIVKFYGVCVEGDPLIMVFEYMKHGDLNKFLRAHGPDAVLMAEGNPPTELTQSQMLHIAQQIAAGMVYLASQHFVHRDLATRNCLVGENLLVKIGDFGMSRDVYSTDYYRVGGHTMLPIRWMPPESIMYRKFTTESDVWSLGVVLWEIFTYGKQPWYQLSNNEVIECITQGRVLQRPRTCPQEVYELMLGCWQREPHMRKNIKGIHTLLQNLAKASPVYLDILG

Molecule	EC50 (human TrkC) [nM]	response of TrkC-NFAT-bla CHO-K1 cells (in words) (human TrkC)	EC50 (human TrkB) [nM]	EC50 (human TrkA) [nM]	maximum response ratio, TrkB-NFAT-bla CHO-K1 (human TrkB)	response of TrkA-NFAT-bla CHO-K1 cells (in words) (human TrkA)	other results
Cn1cc(/C=C2\C(=O)Nc3cccnc32)c2ccccc21 [GW441756]	–	–	–	–	–	–	IC50 [1]: 2830 nM; IC50 [2]: 8970 nM; IC50 [3]: 8200 nM
TRKB2: Stealth RNAi oligo for TrkB, ACACCACGAACAGAAGUAAUGAAAU (Stealth RNAi oligo, modification pattern not given here)	–	–	–	–	–	–	inhibitory effect on thapsigargin-induced NFAT-bla reporter activity [4]: about 50%
B1	> 50	did not show any response	> 50	0.044	–	–	response of TrkB-NFAT-bla CHO-K1 cells (in words) (human TrkB; up to 50 nM): did not respond at all; maximum response ratio / response over baseline, TrkA-NFAT-bla CHO-K1 (human TrkA; […]nm/530nm ratio stimulated vs unstimulated): 5.5 fold; EC50 (human TrkA; listed as NGF 2.5s): 0.04 nM; EC80 concentration, TrkA cells (human TrkA; [5]): 0.77 nM
B2	28	only at the highest concentration (50 nM) tested	0.39	> 50	14	minimal effect	EC80 concentration, TrkB cells (human TrkB; [5]): 1 nM
B3	> 50	did not show any response	3.5	> 50	13	minimal effect	–
